In patent KR20210073785A (dated 2021):

Molecular target: T1, 호산구 유래 신경독(eosinophil-derived neurotoxin, EDN) (UniProt P10153 28-161)
T1 construct: also called 항원 EDN
T1 sequence (looked up): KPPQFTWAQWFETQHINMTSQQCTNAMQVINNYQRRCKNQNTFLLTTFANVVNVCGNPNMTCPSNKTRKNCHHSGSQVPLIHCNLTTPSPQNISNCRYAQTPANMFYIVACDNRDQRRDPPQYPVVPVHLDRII
Assay: BLI (Octet), AR2G amine-reactive biosensor, antibody immobilised, EDN as analyte at 12.5, 6.25, 3.13, 1.56 and 0.78 nM, 1X kinetic buffer

B1: 단일클론항체 Anti-6C5 (antibody, V domains shown)
VH: EVQLQQPGPELVKPGASVKISCKASAYSFTDYIMLWVKQSHGKSLEWIGNIHPYYGSSSYNLKFKGKATLTVDKSSSTAYMQLNSLTSEDSAVYYCAREVGFGKGGFDYWGQGTTLTVSS
VL: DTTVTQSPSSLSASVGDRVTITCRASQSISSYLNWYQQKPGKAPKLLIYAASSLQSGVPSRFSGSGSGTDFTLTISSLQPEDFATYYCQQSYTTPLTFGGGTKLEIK
notes: Whole monoclonal antibody produced from hybridoma cell line 6C5 (culture supernatant); The heavy chain ran at 50 kDa on reducing SDS-PAGE; also called Anti-6C5(6C5)
- Kd: 0.0576 nM
